Target: Light-Harvesting Complex II (LHCII), trimeric (spinach (endogenous in spinach leaves))
Assay: native gel or EMSA; non-denaturing Clear Native PAGE (NativePAGE Novex 4-16% Bis-Tris), Coomassie staining; LHCII in α-DDM after sucrose gradient and size-exclusion chromatography

stoichiometry N: 3
Substance: Light-Harvesting Complex II (LHCII), trimeric

Source: article PMC6135645
